Reference: the RNAGym collection of RNA variant scans (doi:10.7554/elife.90254)

B1: LINE1-full (parent)
chain: UACGUAGGUGGUUUUCCCCUGAUAGUGCUAAGGGGGCCUGGAAGUUUGGACUGGGCAGAGCUCAACACAGCGUGGCAAAGUGGCUGUGGCUAGACUGCCUCUCUGGAUUCCUCGUCACUCAGCAGGGCAUCUCUGAGAGAAAUGCC

Variants of: B1
Test: self-cleavage, relative activity (ratio to wild type); higher = more cleavage; in vitro, sequencing; the parent is a self-cleaving ribozyme

Going from U14A U119C to U13A U20C, the self-cleavage rises from 0.85 to 1.03.

Going from U13C A138G to U13G A79G, the self-cleavage rises from 1.6 to 2.7.

Compared with U13C A124U, U13C A124C is higher in self-cleavage: 1.28 for the first, 1.67 for the second.

Compared with U13C A22G, U13A C38A is lower in self-cleavage: 1.11 for the first, 0.96 for the second.

First: U13G C113A
Second: U14A U85C
The self-cleavage of the first is higher: 1.43 for the first, 0.13 for the second.

Compared with U13C G86A, U13A G54U is higher in self-cleavage: 0.13 for the first, 0.51 for the second.

First: U14C A117U
Second: U13A C51A
The self-cleavage of the first is higher: 1.3 for the first, 0.75 for the second.

Compared with U13A G21U, U13C C118U is higher in self-cleavage: 0.47 for the first, 0.99 for the second.

Compared with U14A U100C, U14A U100A is lower in self-cleavage: 0.78 for the first, 0.28 for the second.

First: U13A A136U
Second: U13A A136G
The self-cleavage of the first is lower: 1.22 for the first, 1.38 for the second.

First: U14A G54A
Second: U13C U29A
The self-cleavage of the first is lower: 0.4 for the first, 0.95 for the second.

First: U13C U29C
Second: U13A U100A
The self-cleavage of the first is higher: 1.35 for the first, 0.59 for the second.

First: U13A U100C
Second: U14C A42U
The self-cleavage of the first is higher: 1.28 for the first, 1.02 for the second.

First: U13C A31G
Second: U13C A31C
The self-cleavage of the first is lower: 0.84 for the first, 0.97 for the second.

Going from U13G U143A to U14A U47A, the self-cleavage falls from 1.33 to 0.81.

Going from U14A U87A to U13C G127U, the self-cleavage rises from 0.15 to 1.36.

Going from U13C G127C to U13C A64G, the self-cleavage falls from 1.47 to 0.35.

Compared with U13C C56U, U14A U15C is higher in self-cleavage: 0.15 for the first, 1.02 for the second.

First: U14C A67U
Second: U14C A67C
The self-cleavage of the first is lower: 0 for the first, 0.13 for the second.

First: U14A U62C
Second: U14A U62G
The self-cleavage of the first is lower: 0.1 for the first, 0.53 for the second.

First: U14A A22U
Second: U13C U132G
The self-cleavage of the first is higher: 1.6 for the first, 1.02 for the second.

Going from U14C A64G to U13A C110A, the self-cleavage rises from 0.33 to 0.84.

Going from U14C A57G to U14C A57C, the self-cleavage falls from 0.89 to 0.36.

Going from U13A A57U to U13A A57G, the self-cleavage rises from 0.06 to 0.51.

Compared with U13G A30G, U13G A30U is lower in self-cleavage: 1.27 for the first, 0.56 for the second.

Compared with U13A C133U, U13A C133A is higher in self-cleavage: 0.67 for the first, 0.97 for the second.

Compared with U12G U109A, U14C A79G is lower in self-cleavage: 1.47 for the first, 0.84 for the second.

Compared with U14A U115A, U14A U115C is higher in self-cleavage: 0.7 for the first, 1.06 for the second.

Going from U13A U46C to U14A A138U, the self-cleavage rises from 0.77 to 1.07.

Compared with U13C C51G, U12G U91C is lower in self-cleavage: 1.44 for the first, 1.02 for the second.

Compared with U13C U130G, U13C C110A is higher in self-cleavage: 0.95 for the first, 1.29 for the second.

Compared with U13C G27A, U13A G114A is higher in self-cleavage: 0.85 for the first, 1.03 for the second.

Compared with U13G U102C, U14A C99G is lower in self-cleavage: 0.66 for the first, 0.63 for the second.

Compared with U13G G34U, U13A C103A is lower in self-cleavage: 1.2 for the first, 1.04 for the second.

Compared with U13C U119A, U13C U119G is higher in self-cleavage: 1.15 for the first, 1.28 for the second.

Going from U13A C28U to U13A U119A, the self-cleavage rises from 0.76 to 1.06.

Compared with U12G U81G, U12G U81A is higher in self-cleavage: 0.68 for the first, 2.33 for the second.

Compared with U13C A141U, U13C A141G is lower in self-cleavage: 1.57 for the first, 1.18 for the second.

Going from U13C A141C to U13C G55U, the self-cleavage falls from 1.59 to 0.22.

First: U13C G55A
Second: U13G U20A
The self-cleavage of the first is lower: 0.23 for the first, 0.69 for the second.

Compared with U13C C63U, U12G U134C is higher in self-cleavage: 0.32 for the first, 1.19 for the second.

Going from U13C G125U to U13C C28U, the self-cleavage falls from 1.4 to 0.64.

Going from U13A U45C to U14A U102C, the self-cleavage rises from 1.01 to 1.19.

Compared with U13A A22G, U12G U73C is higher in self-cleavage: 1.05 for the first, 1.54 for the second.

Going from U12G U73A to U13C U81A, the self-cleavage falls from 1.68 to 1.56.

Compared with U14A G34A, U14A G34C is higher in self-cleavage: 0.78 for the first, 1.98 for the second.

Compared with U13G A107G, U13G A107U is higher in self-cleavage: 1.12 for the first, 1.58 for the second.

Going from U12G U96C to U13C A94U, the self-cleavage rises from 0.27 to 0.42.

First: U13C A94C
Second: U13C C68U
The self-cleavage of the first is lower: 0.11 for the first, 0.17 for the second.

Going from U14A A107G to U14C A22G, the self-cleavage falls from 1.1 to 0.99.

Compared with U13C U20A, U13A U47C is lower in self-cleavage: 1.07 for the first, 0.59 for the second.

First: U13G A59G
Second: U13G C145U
The self-cleavage of the first is lower: 0.12 for the first, 1.16 for the second.

Compared with U13C U14C, U13C U14A is lower in self-cleavage: 1.13 for the first, 0.79 for the second.

Compared with U14A U108C, U14A U108G is higher in self-cleavage: 0.87 for the first, 1.09 for the second.

First: U14A C131U
Second: U13A A30G
The self-cleavage of the first is lower: 0.21 for the first, 0.97 for the second.

Compared with U13A A78G, U14A G55U is lower in self-cleavage: 0.84 for the first, 0.28 for the second.

Compared with U14A G48A, U13C G34U is higher in self-cleavage: 1.09 for the first, 1.99 for the second.

Going from U13C C120G to U12G U23C, the self-cleavage falls from 1.48 to 1.32.

Compared with U13C G88U, U13G A57G is higher in self-cleavage: 0.09 for the first, 1.05 for the second.

First: U13G A57U
Second: U13C U52C
The self-cleavage of the first is lower: 0.13 for the first, 1.06 for the second.

First: U13C U52A
Second: U13C G70C
The self-cleavage of the first is higher: 1.44 for the first, 0.15 for the second.

Compared with U14A A42G, U14A A42U is lower in self-cleavage: 0.98 for the first, 0.47 for the second.

Going from U14A A42C to U14A C63U, the self-cleavage falls from 0.97 to 0.09.

Compared with U13A G35A, U13A U134G is higher in self-cleavage: 0.65 for the first, 1.34 for the second.

Going from U13A U134A to U14A U134C, the self-cleavage rises from 0.51 to 1.62.

Going from U14A G144A to U13G U134A, the self-cleavage falls from 1.12 to 1.06.

Going from U13A A59G to U13C G32A, the self-cleavage rises from 0.07 to 0.99.

Going from U13C G32U to U13C G32C, the self-cleavage falls from 1.2 to 0.7.

First: U13G U15C
Second: U13G U108C
The self-cleavage of the first is higher: 1.47 for the first, 1.31 for the second.

Compared with U13G U108G, U12G U47A is lower in self-cleavage: 1.2 for the first, 0.95 for the second.

Going from U14A A77C to U12G U20A, the self-cleavage rises from 0.88 to 1.08.

First: U13A A129G
Second: U13A A129U
The self-cleavage of the first is higher: 1.2 for the first, 0.81 for the second.

First: U14A C51U
Second: U13A U15A
The self-cleavage of the first is higher: 0.97 for the first, 0.59 for the second.

Going from U13C G126A to U13C U85G, the self-cleavage falls from 1.22 to 0.29.

Going from U13C U85C to U13A A138G, the self-cleavage rises from 0.18 to 1.22.

First: U12G U87C
Second: U12G U87A
The self-cleavage of the first is higher: 0.16 for the first, 0.09 for the second.

Compared with U13C C17A, U14A A50U is lower in self-cleavage: 1.4 for the first, 0.18 for the second.

Going from U14A A64U to U14A A64G, the self-cleavage falls from 0.48 to 0.21.

Compared with U13C C19U, U13G A31G is lower in self-cleavage: 1.01 for the first, 0.39 for the second.

Going from U13C C113A to U13C C113U, the self-cleavage rises from 0.44 to 1.

Compared with U13A A31C, U14A A59G is lower in self-cleavage: 1.52 for the first, 0.14 for the second.

Compared with U12G U15C, U13A C99U is lower in self-cleavage: 0.9 for the first, 0.46 for the second.

Compared with U12G U108A, U12G U108C is higher in self-cleavage: 0.77 for the first, 1.52 for the second.

Variant U13C G72U has a self-cleavage of 1.21.
